According to US20260167721A1 (ABLEXIS, published 2026):

B1: Low affinity Control (Control Humanized anti-CD3 (low affinity) scFv-Fc knob/TM with gemtuzumab arm) (bispecific antibody)
scFv: EVQLVESGGGLVQPGGSLRLSCAASGFTFSTYAMNWVRQAPGKGLEWVGRIRSKYNNYATYYADSVKGRFTISRDDSKNTLYLQMNSLRAEDTAVYYCVRHGNFGDSYVSWFDYWGQGTLVTVSSGKPGSGKPGSGKPGSGKPGSQAVVTQEPSLTVSPGGTVTLTCGSSTGAVTTSNYANWVQQKPGKSPRGLIGGTNKRAPGVPARFSGSLLGGKAALTISGAQPEDEADYYCALWYSNHWVFGGGTKLTVLGGGGSDKTHTCPPCPAPEFEGGPSVFLFPPKPKDTLMISRTPEVTCVVVDVSHEDPEVKFNWYVDGVEVHNAKTKPREEQYNSTYRVVSVLTVLHQDWLNGKEYKCKVSNKALPASIEKTISKAKGQPREPQVYTLPPCREEMTKNQVSLWCLVKGFYPSDIAVEWESNGQPENNYKTTPPVLDSDGSFFLYSKLTVDKSRWQQGNVFSCSVMHEALHNHYTQKSLSLSPGK
heavy: EVQLVQSGAEVKKPGSSVKVSCKASGYTITDSNIHWVRQAPGQSLEWIGYIYPYNGGTDYNQKFKNRATLTVDNPTNTAYMELSSLRSEDTAFYYCVNGNPWLAYWGQGTLVTVSSASTKGPSVFPLAPSSKSTSGGTAALGCLVKDYFPEPVTVSWNSGALTSGVHTFPAVLQSSGLYSLSSVVTVPSSSLGTQTYICNVNHKPSNTKVDKRVEPKSCDKTHTCPPCPAPEFEGGPSVFLFPPKPKDTLMISRTPEVTCVVVDVSHEDPEVKFNWYVDGVEVHNAKTKPREEQYNSTYRVVSVLTVLHQDWLNGKEYKCKVSNKALPASIEKTISKAKGQPREPQVCTLPPSREEMTKNQVSLSCAVKGFYPSDIAVEWESNGQPENNYKTTPPVLDSDGSFFLVSKLTVDKSRWQQGNVFSCSVMHEALHNRFTQKSLSLSPGK
light: DIQLTQSPSTLSASVGDRVTITCRASESLDNYGIRFLTWFQQKPGKAPKLLMYAASNQGSGVPSRFSGSGSGTEFTLTISSLQPDDFATYYCQQTKEVPWSFGQGTKVEVKRTVAAPSVFIFPPSDEQLKSGTASVVCLLNNFYPREAKVQWKVDNALQSGNSQESVTEQDSKDSTYSLSSTLTLSKADYEKHKVYACEVTHQGLSSPVTKSFNRGEC
B2: CD3 × CD33-BspAb51 (bispecific antibody)
chain 1: not shown
chain 2: B1 heavy
chain 3: B1 light
B3: CD3 × CD33-BspAb45 (bispecific antibody)
chain 1: EVQLVESGGGLVQPGGSLRLSCAASGFTFSRYSMNWVRQAPGKCLEWVSYISSSSSSIYYADSVKGRFTISRDNAKNSLYLQMNSLRDEDTAVYYCARDRRATLDYWGQGTLVTVSSGGGGSGGGGSGGGGSGGGGSNFMLTQPHSVSESPGKTVTISCTRSSGSIASNYVQWYQQRPGSSPTTVIYEDNQRPSGVPDRFSGSIDSSSNSASLTISGLKTEDEADYYCQSYDSSNHVFGCGTKLTVLDKTHTCPPCPAPEFEGGPSVFLFPPKPKDTLMISRTPEVTCVVVDVSHEDPEVKFNWYVDGVEVHNAKTKPREEQYNSTYRVVSVLTVLHQDWLNGKEYKCKVSNKALPASIEKTISKAKGQPREPQVYTLPPCREEMTKNQVSLWCLVKGFYPSDIAVEWESNGQPENNYKTTPPVLDSDGSFFLYSKLTVDKSRWQQGNVFSCSVMHEALHNHYTQKSLSLSPGK
chain 2: B1 heavy
chain 3: B1 light
B4: CD3 × CD33-BspAb52 (bispecific antibody)
chain 1: not shown
chain 2: B1 heavy
chain 3: B1 light
B5: CD3 × CD33-BspAb116 (bispecific antibody)
chain 1: NFMLTQPHSVSESPGKTVTISCTRSSGSIASNYVQWYQQRPGSSPTTVIYEDNQRPSGVPDRFSGSIDSSSNSASLTISGLKTEDEAYYYCQSFDSSNRVFGCGTKLTVLGGGGSGGGGSGGGGSGGGGSQVQLQESGPGLVKPSQTLSLTCTVSGGSISSGGYYWSWIRQHPGKCLEWIGYIYYSGSTYYNPSLKSRVTISVDTSKDQFSLKLSSVTAADTAVYYCARERKTSLPFDIWGQGTMVTVSSDKTHTCPPCPAPEFEGGPSVFLFPPKPKDTLMISRTPEVTCVVVDVSHEDPEVKFNWYVDGVEVHNAKTKPREEQYNSTYRVVSVLTVLHQDWLNGKEYKCKVSNKALPASIEKTISKAKGQPREPQVYTLPPCREEMTKNQVSLWCLVKGFYPSDIAVEWESNGQPENNYKTTPPVLDSDGSFFLYSKLTVDKSRWQQGNVFSCSVMHEALHNHYTQKSLSLSPGK
chain 2: B1 heavy
chain 3: B1 light
B6: CD3 × CD33-BspAb66 (bispecific antibody, human IgG1, kappa)
scFv: EVQLVESGGGLVQPGRSLRLSCAASGFTFDDYAMHWVRQAPGKGLEWVSGISWNSGSIGYADSVKGRFTISRDNAKNSLYLQMNSLRAEDTALYYCAKDSRGYGDYRLGGAYWGQGTLVTVSSGGGGSGGGGSGGGGSGGGGSEIVMTQSPATLSVSPGERATLSCRASQSVSSNLAWYQQKPGQAPRLLIYGASTRATGIPARFSGSGSGTEFTLTISSLQSEDFAVYYCQQYNNWPWTFGQGTKVEIKTSGPGGPDKTHTCPPCPAPEFEGGPSVFLFPPKPKDTLMISRTPEVTCVVVDVSHEDPEVKFNWYVDGVEVHNAKTKPREEQYNSTYRVVSVLTVLHQDWLNGKEYKCKVSNKALPASIEKTISKAKGQPREPQVYTLPPCREEMTKNQVSLWCLVKGFYPSDIAVEWESNGQPENNYKTTPPVLDSDGSFFLYSKLTVDKSRWQQGNVFSCSVMHEALHNHYTQKSLSLSPGK
heavy: B1 heavy
light: B1 light
B7: CD3 × CD33-BspAb38 (bispecific antibody)
chain 1: not shown
chain 2: B1 heavy
chain 3: B1 light
B8: CD3 × CD33-BspAb37 (bispecific antibody)
chain 1: not shown
chain 2: B1 heavy
chain 3: B1 light

Key:
[1] = molecular target: T1, human CD3 (on human Pan-T cells or donor PBMC) (human, UniProt P07766 23-207; P04234 22-171; P09693 23-182; P20963 22-164); assay: cell-based or functional assay
T1 sequence (P07766 23-207, chain 1 of 4): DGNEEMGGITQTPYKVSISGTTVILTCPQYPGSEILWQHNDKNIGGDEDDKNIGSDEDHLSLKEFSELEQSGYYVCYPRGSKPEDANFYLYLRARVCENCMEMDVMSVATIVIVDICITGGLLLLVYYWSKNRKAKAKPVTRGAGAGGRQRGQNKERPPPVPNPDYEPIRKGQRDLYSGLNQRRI
T1 sequence (P04234 22-171, chain 2 of 4): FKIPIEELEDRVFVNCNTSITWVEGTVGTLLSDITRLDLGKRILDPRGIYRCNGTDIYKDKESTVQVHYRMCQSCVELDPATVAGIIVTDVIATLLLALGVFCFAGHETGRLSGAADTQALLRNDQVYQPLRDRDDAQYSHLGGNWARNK
T1 sequence (P09693 23-182, chain 3 of 4): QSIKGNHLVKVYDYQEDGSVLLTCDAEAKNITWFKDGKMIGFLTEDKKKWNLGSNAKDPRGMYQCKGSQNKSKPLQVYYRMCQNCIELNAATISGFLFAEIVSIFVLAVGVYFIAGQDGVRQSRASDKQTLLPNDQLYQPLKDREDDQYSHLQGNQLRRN
T1 sequence (P20963 22-164, chain 4 of 4): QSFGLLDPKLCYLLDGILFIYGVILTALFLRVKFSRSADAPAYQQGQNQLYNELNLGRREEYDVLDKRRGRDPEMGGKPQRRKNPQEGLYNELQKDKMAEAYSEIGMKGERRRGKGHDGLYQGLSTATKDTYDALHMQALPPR

[2] = molecular target: T1, human CD3 (on human Pan-T cells or …); assay: cell-based or functional assay; remark: listed apart in the source

Binder | Cytokine Release Assay (IFNγ), Donor 0, EC50 [1] | Cytokine Release Assay (IFNγ), Donor 0, gMFI max [1] | Cytokine Release Assay (IFNγ), Donor 1, EC50 [1] | Cytokine Release Assay (IFNγ), Donor 1, gMFI max [1] | Cytokine Release Assay (IFNγ), Donor 2, EC50 [1] | Cytokine Release Assay (IFNγ), Donor 2, gMFI max [1] | Cytokine Release Assay (IFNγ), Donor 3, EC50 [1] | Cytokine Release Assay (IFNγ), Donor 3, gMFI max [1] | RTCC Assay, Donor 0, EC50 [2] | RTCC Assay, Donor 0, gMFI max [2] | RTCC Assay, Donor 1, EC50 [2] | RTCC Assay, Donor 1, gMFI max [2] | RTCC Assay, Donor 2, EC50 [2] | RTCC Assay, Donor 2, gMFI max [2] | RTCC Assay, Donor 3, EC50 [2] | RTCC Assay, Donor 3, gMFI max [2]
B1 | 308 pM | 2.92e+06 gMFI | 14400 pM | 129000 gMFI | 16400 pM | 712000 gMFI | 11400 pM | 1.08e+06 gMFI | 23700 pM | 59700 gMFI | 5020 pM | 122000 gMFI | 6680 pM | 82100 gMFI | 299 pM | 104000 gMFI
B2 | 269 pM | 1.34e+06 gMFI | 15300 pM | 10800 gMFI | 292 pM | 30600 gMFI | 214 pM | 355000 gMFI | 200 pM | 28400 gMFI | 36 pM | 66900 gMFI | 50 pM | 55800 gMFI | 85 pM | 80600 gMFI
B3 | 96 pM | 1.39e+06 gMFI |  | 4630 gMFI | 68.4 pM | 26900 gMFI |  | 290000 gMFI | 30 pM | 23300 gMFI | 4 pM | 76100 gMFI | 12 pM | 55900 gMFI | 20 pM | 86700 gMFI
B4 |  | 6350 gMFI |  | 4220 gMFI |  | 4670 gMFI | 25400 pM | 8060 gMFI | 5210 pM | 16200 gMFI | 762 pM | 57800 gMFI | 2280 pM | 37700 gMFI | 7830 pM | 42700 gMFI
B5 |  | 187000 gMFI |  | 5440 gMFI | 177 pM | 14100 gMFI | 1510 pM | 167000 gMFI | 126 pM | 24500 gMFI | 45 pM | 66000 gMFI | 121 pM | 52800 gMFI | 171 pM | 65800 gMFI
B6 | 12900 pM | 1.25e+06 gMFI |  | 7650 gMFI | 22900 pM | 28300 gMFI | 52600 pM | 379000 gMFI | 2920 pM | 29700 gMFI | 937 pM | 65800 gMFI | 1850 pM | 53900 gMFI | 2330 pM | 75900 gMFI
B7 | 8380 pM | 555000 gMFI |  | 4320 gMFI | 13400 pM | 18000 gMFI | 6380 pM | 98500 gMFI | 1490 pM | 23300 gMFI | 413 pM | 64800 gMFI | 717 pM | 50500 gMFI | 1720 pM | 75800 gMFI
B8 | 252 pM | 1.06e+06 gMFI |  | 5560 gMFI | 140 pM | 32900 gMFI | 1760 pM | 317000 gMFI | 172 pM | 31600 gMFI | 10 pM | 70600 gMFI | 42 pM | 59200 gMFI | 53 pM | 82300 gMFI
